Laboratory results reported in PMC11731006, “Structural insight into Okazaki fragment maturation mediated by PCNA-bound FEN1 and RNaseH2”.

Molecular target: RNaseH2 complex (RNaseH2A/RNaseH2B/RNaseH2C), wild type;PCNA (Homo sapiens;Homo sapiens, UniProt O75792;Q5TBB1;Q8TDP1;P12004 1-299;1-312;1-164;1-261, |)
Test: EMSA; 100 nM PCNA; 2 mM MgCl2; 100 nM DNA; 0.4-1.0 uM RNaseH2; PCNA raises binding (p 0.025, 0.010, 0.003 at 0.6, 0.8, 1.0 uM; ns at 0.4 uM); EMSA: 25 mM Tris pH 7.5, 100 mM NaCl, 10% glycerol, 2 mM MgCl2, 30 min at RT; 5% native TBE-PAGE at 4 C. Cryo-EM structures (8YJH-8YJZ) carry endogenous DNA of
Conditions: protein: recombinant;recombinant; tags: N-terminal 6xHis (each subunit as stated);N-terminal 6xHis; copies: 1;1;1;3; blunt

Sequence of RNaseH2 complex (RNaseH2A/RNaseH2B/RNaseH2C), wild type;PCNA (O75792 whole entry, chain 1 of 4): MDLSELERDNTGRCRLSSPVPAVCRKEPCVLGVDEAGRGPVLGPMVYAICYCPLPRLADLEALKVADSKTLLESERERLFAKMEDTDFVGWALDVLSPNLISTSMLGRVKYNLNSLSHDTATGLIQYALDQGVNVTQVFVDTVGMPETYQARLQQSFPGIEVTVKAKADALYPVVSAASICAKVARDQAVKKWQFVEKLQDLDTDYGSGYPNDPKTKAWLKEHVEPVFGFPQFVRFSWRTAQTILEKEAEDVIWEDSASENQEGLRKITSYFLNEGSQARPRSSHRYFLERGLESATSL
Sequence of RNaseH2 complex (RNaseH2A/RNaseH2B/RNaseH2C), wild type;PCNA (Q5TBB1 whole entry, chain 2 of 4): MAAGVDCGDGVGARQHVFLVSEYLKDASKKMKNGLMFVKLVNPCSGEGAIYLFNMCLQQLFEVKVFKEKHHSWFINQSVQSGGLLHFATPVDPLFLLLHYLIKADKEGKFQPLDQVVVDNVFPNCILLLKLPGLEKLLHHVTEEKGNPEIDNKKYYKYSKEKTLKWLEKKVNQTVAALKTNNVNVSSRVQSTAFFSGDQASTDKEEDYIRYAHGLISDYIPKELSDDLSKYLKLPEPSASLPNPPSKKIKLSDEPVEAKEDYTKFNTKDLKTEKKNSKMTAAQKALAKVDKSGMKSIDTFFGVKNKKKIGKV
Sequence of RNaseH2 complex (RNaseH2A/RNaseH2B/RNaseH2C), wild type;PCNA (Q8TDP1 whole entry, chain 3 of 4): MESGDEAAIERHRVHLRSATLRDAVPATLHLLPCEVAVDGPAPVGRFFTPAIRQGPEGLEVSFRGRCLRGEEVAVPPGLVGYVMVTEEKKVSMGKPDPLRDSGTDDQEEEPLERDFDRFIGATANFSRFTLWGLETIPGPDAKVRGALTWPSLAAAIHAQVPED
Sequence of RNaseH2 complex (RNaseH2A/RNaseH2B/RNaseH2C), wild type;PCNA (P12004 whole entry, chain 4 of 4): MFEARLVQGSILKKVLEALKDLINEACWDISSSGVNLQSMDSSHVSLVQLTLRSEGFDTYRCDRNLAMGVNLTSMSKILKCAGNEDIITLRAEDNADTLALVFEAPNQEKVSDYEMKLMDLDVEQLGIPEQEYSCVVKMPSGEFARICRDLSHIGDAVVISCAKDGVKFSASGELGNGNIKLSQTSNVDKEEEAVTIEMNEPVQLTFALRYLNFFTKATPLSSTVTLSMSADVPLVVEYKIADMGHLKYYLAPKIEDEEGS

B1: 5'-FAM 20 bp dsDNA (dsDNA)
DNA 1: CGGTTATAGGTTCACGGGGT
DNA 2: ACCCCGTGAACCTATAACCG
B1: binds.
